Usually stoichiometry N stands for a count of units in the complex or per binding partner.

We go through 2 proteins from publication doi:10.1101/2024.05.31.596772, “CAMSAP3 Forms Dimers via its α-helix Domain that Directly Stabilize Non-centrosomal Microtubule Minus Ends” (bioRxiv, 2024).

This data set concerns the molecule itself. Put plainly: SEC-MALS; static light detection of the purified GFP-tagged protein; dimer from the mass of the primary peak. On the technique in general: In gel filtration, larger molecules generally elute earlier.

B1: GFP-CAMSAP3 (natural protein, UniProt Q80VC9 1-1252, looked up)
chain: MVEAAPAGSGPLRRTFLVPEIKSLDQYDFSRAKAAASLAWVLRAAFGGAEHVPPELWEPFYTDQYAQEHVKPPVTRLLLSAELYCRAWRQALPQLEPSPSPSALLALLARRGTVPSLPEHPVREADLKHQPILMGAHLAVIDALMVAFSFEWTKTLPGPLALSSLEHKLLFWVDTTVRRLQEKTEQEAAQRASPAAPLDGASPAQPSIRYRKDRAIARRAPCFPNVTTLQDLASGAALAATIHCYCPQLLRLEEVCLKDPMSVADSLYNLQLVQDFCASHLPRGCPLSLEDLLYVPPPLKVNLVVLLAEMYMCFEVLKPDFVQAKDLPDGHAVSPRNTETVPSQNNSGSSSPVFNFRHPLLSPGGPQSPLRGSTGSLKSSPSMSHMEALGKAWNRQLSRPLSQAVSFSTPFGLDSDVDVVMGDPVLLRSVSSDSLGPPRPVSTSSRNSAQPAPESGDLPTIEEALQIIHSAEPRLLPDGAADGSFYLHSPEGLSKPPLSPYPPEGASKPLSDRLNKAPIYISHPENPSKSSPCSTGEILKPPPPSEGSPKAVASSPAANNSEVKMTSFAERKKQLVKAEAESGLGSPTSTPVAPEALSSEMSELGARLEEKRRAIEAQKRRIEAIFAKHRQRLGKSAFLQVQPREAAGEAEEEAELGSVPGGERPAGEGQGEPSLRHKSVTFSPDLGPVPPEGLGDYNRAVSKLSAALSSLQRDMQRLTDQQQRLLAPPEAPGPAPPPAAWVIPGPATGPKAASPSPARRAPAARRSPGPGPSPTPRSPKHARPAELKLAPLTRVLTPPHDVDSLPHLRKFSPSQVPVQTRSSILLSEGTPPEEPTTKPALIEIPLASLGEPAADEEGDGSPPGAEDSLEEEASSEGEPRSGLGFFYKDEDKPEDEMAQKRASLLERQQRRVEEARRRKQWQEAEKEQKREEAARLAQEAPGLAFTTPVVASAAPVATLAPTTRAMAPAEEEVGPRRGDFTRLEYERRAQLKLMDDLDKVLRPRASGTGGPGRGGRRATRPRSGCCDDSALARSPARGLLGSRLSKVYSQSTLSLSTVANEAPNNLGVKRPTSRAPSPSGLMSPSRLPGSRERDWENGSNASSPASVPEYTGPRLYKEPSAKSNKFIIHNALSHCCLAGKVNEPQKNRILEEIEKSKANHFLILFRDSSCQFRALYTLSGETEELSRLAGYGPRTVTPAMVEGIYKYNSDRKRFTQIPAKTMSMSVDAFTIQGHLWQSKKPTTPKKGGGTPK
notes: CAMSAP3 (Nezha), full length; also called Nezha; CAMSAP3 full-length; source: Sf9 cells, purified
As to B1, the “stoichiometry N” value stood at 2.

B2: GFP-CAMSAP3 944F (domain or fragment, UniProt Q80VC9 944-1252, looked up)
chain: AFTTPVVASAAPVATLAPTTRAMAPAEEEVGPRRGDFTRLEYERRAQLKLMDDLDKVLRPRASGTGGPGRGGRRATRPRSGCCDDSALARSPARGLLGSRLSKVYSQSTLSLSTVANEAPNNLGVKRPTSRAPSPSGLMSPSRLPGSRERDWENGSNASSPASVPEYTGPRLYKEPSAKSNKFIIHNALSHCCLAGKVNEPQKNRILEEIEKSKANHFLILFRDSSCQFRALYTLSGETEELSRLAGYGPRTVTPAMVEGIYKYNSDRKRFTQIPAKTMSMSVDAFTIQGHLWQSKKPTTPKKGGGTPK
notes: source: Sf9 cells, purified
For the protein B2, the “stoichiometry N” value is 2.
